Source: US20220332804A1 (CSL INNOVATION, published 2022)
Where a chain is given by its changes, count along the chain named. Names may count otherwise.

Tests used:
cynomolgus monkey C2 [1] = target: T1, cynomolgus monkey C2 (cynomolgus monkey, UniProt G8F3W0 21-752); assay: cell-based or functional assay
T1 sequence: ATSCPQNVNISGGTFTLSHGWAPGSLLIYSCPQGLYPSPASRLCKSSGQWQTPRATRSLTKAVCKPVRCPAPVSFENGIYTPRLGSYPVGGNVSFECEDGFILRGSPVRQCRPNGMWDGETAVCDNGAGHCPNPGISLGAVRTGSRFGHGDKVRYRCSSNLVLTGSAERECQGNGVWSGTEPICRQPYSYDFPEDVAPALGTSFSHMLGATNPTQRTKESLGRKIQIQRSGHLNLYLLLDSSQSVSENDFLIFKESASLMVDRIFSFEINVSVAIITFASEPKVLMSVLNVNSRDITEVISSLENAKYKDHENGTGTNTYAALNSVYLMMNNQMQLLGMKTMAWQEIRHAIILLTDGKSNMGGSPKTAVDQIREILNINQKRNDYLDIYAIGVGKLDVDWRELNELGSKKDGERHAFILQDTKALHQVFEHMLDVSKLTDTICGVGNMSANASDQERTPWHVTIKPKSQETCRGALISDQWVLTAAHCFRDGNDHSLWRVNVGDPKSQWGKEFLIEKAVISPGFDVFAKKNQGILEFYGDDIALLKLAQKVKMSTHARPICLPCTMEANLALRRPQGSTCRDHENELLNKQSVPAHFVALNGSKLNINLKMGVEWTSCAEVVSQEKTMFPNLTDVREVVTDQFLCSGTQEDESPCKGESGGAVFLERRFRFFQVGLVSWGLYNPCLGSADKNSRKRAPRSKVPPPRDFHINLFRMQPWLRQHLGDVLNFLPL

human complement C2 [2] = target: T2, human complement C2 (human, UniProt P06681 21-752); assay: SPR, mAb captured, C2 analyte, HBS-EP, pH 7.3
T2 construct: Recombinant full-length human C2 with C-terminal 8x His tag, purified from Expi293F supernatant; also called human C2; huC2
T2 sequence: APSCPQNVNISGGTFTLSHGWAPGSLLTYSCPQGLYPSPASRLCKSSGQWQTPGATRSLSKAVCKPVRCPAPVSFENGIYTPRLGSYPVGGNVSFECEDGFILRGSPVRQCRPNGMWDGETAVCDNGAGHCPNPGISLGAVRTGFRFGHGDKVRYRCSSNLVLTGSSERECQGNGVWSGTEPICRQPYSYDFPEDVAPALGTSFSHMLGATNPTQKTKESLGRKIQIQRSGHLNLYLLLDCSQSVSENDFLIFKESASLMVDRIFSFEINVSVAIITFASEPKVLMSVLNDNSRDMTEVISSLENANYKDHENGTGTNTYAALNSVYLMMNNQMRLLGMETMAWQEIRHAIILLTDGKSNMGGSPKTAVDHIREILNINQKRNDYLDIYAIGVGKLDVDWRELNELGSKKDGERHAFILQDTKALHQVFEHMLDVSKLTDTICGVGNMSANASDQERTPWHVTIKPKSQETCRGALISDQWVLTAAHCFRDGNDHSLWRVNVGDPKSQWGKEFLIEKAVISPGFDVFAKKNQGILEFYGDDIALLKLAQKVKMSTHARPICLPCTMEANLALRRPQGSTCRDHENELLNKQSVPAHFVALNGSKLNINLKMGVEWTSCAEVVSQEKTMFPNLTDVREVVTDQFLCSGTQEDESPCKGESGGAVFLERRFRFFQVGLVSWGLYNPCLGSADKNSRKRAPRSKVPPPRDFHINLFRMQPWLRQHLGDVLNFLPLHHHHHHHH
Method: (§1) Surface plasmon resonance (SPR, Biacore) was used for all binding affinity analyses. In brief, goat anti-human IgG was directly immobilised onto the carboxymethyl dextran surface of CM5 sensorchips to approximately 12,000 RU using standard NHS/EDC chemistry at pH 5. The immobilised antibody surface was pre-conditioned with ten injections of polyclonal human IgG (Privigen 60 s) prepared at 1 μg/mL. Ligands (anti-C2 mAbs) were captured at the beginning of each cycle as described below. An adjacent spot or flow cell in which only Polyclonal IgG was capture was used as a reference surface. The goat anti-human IgG Fc antibody surface was regenerate in 100 mM H3PO4, injected for 45 seconds at the end of each cycle. Experiments were performed at 37° C. and the flow rate of each experiment was kept constant at 30 μL/min.
The pH dependent anti-C2 antibodies and their germlined versions were tested for their affinity to C2 at pH 7.3 (neutral pH) and pH 6.0 (early endosome pH) using the SPR methods described above in HBS-EP buffer.

cynomolgus monkey C2 [3] = target: T1, cynomolgus monkey C2; assay: cell-based or functional assay; remark: listed apart in the source
human complement C2 [4] = target: T2, human complement C2; assay: cell-based or functional assay
mouse C2 = target: T3, mouse C2 (mouse, UniProt P21180 19-760, limits assumed); assay: SPR, mAb captured, mouse C2 analyte, pH 7.3
T3 sequence (looked up): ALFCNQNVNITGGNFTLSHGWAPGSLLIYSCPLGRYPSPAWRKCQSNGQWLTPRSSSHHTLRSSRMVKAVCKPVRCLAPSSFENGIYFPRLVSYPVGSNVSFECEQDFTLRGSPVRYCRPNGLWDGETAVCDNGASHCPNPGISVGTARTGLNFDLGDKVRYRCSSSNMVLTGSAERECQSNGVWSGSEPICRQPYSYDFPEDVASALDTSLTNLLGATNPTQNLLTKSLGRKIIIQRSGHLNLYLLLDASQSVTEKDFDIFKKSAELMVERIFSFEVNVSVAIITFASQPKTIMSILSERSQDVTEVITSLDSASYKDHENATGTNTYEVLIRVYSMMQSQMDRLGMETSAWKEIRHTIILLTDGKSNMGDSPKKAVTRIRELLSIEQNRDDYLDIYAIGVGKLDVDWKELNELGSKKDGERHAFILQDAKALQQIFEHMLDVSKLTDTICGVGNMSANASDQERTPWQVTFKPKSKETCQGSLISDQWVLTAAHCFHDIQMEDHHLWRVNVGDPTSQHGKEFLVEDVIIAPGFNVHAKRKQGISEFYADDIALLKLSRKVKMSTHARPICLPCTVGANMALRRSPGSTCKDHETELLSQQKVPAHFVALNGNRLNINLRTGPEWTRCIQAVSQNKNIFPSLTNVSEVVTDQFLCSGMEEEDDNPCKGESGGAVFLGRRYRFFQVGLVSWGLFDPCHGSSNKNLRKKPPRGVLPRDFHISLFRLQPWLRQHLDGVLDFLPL
Method: as §1
(§2) In addition to human C2, the pH dependent anti-C2 antibodies were also tested for their ability to bind to C2 from other mammalian species using the SPR methods described above in order to identify suitable surrogate species for in vivo testing. The antibodies were tested for binding at neutral pH against C2 from cynomolgus monkeys, mice, dogs, rabbits, rats, pigs, and sheep.

human complement C2 [5] = target: T2, human complement C2; assay: cell-based or functional assay; remark: listed apart in the source
human complement C2 [6] = target: T2, human complement C2; assay: SPR, mAb captured, C2 analyte, MHAs buffer, pH 7.3
Method: as §1
This buffer contains ammonium sulfate instead of sodium chloride.

cynomolgus monkey C2 [7] = target: T1, cynomolgus monkey C2; assay: SPR, mAb captured, cyno C2 analyte, pH 7.3
Method: as §1, §2

human complement C2 [8] = target: T2, human complement C2; assay: SPR, mAb captured, C2 analyte, HBS-EP, pH 6.0, steady state
[9] = target: T4, human complement C2 zymogen (human, UniProt P06681 21-752); assay: SPR, human C2 zymogen analyte, HBS-EP, pH 7.3, 37 C
T4 construct: also called huC2; human C2
T4 sequence: T2 sequence
Method: as §1
(§3) Purified human C2 zymogen and human C2a were tested at concentrations ranging from 1.9 to 500 nM while human C2b was tested at concentrations ranging from 1.9 to 1000 nM. All experiments were performed in HBS-EP buffer supplemented with 0.1% BSA at 37° C. and pH 7.3. Each antibody was tested against human C2 zymogen and human C2a in duplicate and against C2b in quadruplicate. The flow rate was set to 30 μL/min. Each analyte concentration was tested in duplicate.

human C2b = target: T5, human C2b (human, UniProt P06681 21-243); assay: SPR, HBS-EP, pH 7.3, 37 C
T5 construct: the whole entry is named here
T5 sequence: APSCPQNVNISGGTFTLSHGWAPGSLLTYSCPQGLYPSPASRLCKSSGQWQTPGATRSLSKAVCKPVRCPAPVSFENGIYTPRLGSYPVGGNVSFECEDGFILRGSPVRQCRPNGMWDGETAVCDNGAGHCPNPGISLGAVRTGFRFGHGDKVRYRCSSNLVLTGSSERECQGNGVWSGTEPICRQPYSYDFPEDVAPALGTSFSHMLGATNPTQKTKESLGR
Method: as §1, §3

[10] = target: T6, human C2a (activated human C2) (human, UniProt P06681 244-752); assay: SPR, HBS-EP, pH 7.3, 37 C
T6 construct: the whole entry is named here; also called huC2a
T6 sequence: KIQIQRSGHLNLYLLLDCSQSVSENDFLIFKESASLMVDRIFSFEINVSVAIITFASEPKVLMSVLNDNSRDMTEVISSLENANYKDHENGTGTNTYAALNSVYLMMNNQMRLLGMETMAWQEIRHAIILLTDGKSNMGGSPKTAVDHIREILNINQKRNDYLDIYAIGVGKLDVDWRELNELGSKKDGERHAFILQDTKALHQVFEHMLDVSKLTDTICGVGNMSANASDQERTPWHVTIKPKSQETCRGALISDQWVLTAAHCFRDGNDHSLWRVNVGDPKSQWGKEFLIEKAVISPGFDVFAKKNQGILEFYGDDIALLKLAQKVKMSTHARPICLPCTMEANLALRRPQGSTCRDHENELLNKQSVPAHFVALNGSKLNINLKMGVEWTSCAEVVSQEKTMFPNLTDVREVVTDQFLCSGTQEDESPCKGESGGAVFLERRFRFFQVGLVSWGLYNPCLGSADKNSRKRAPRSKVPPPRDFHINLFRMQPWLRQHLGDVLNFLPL
Method: as §1, §3

human FcRn/β2m [11] = target: T7, human FcRn/β2m (human, UniProt P55899 24-297; P61769 21-119); assay: SPR, antibody immobilised, FcRn/β2m analyte, pH 7.3
T7 construct: Soluble FcRn/β2m injected as analyte over immobilised antibody; also called neonatal Fc receptor
T7 sequence (P55899 24-297 limits assumed, chain 1 of 2): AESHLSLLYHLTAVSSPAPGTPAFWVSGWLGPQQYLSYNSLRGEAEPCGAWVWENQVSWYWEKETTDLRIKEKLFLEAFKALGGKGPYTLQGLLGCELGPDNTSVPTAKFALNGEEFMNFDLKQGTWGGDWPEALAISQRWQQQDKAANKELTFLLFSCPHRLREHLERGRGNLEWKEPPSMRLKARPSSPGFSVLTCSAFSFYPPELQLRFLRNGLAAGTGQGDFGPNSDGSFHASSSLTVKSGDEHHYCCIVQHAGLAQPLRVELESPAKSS
T7 sequence (P61769 21-119 limits assumed, chain 2 of 2): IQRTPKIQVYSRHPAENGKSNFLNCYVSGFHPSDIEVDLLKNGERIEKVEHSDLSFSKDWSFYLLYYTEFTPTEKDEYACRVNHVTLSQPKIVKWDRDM
Method: (§4) Anti-C2 mAbs (1 μg/mL at pH 5) were immobilized on a carboxylmethyldextran (CM5) sensorchip surface using standard EDC/NHS chemistry. Human and Cyno FcRn/β2m (40 μM) were prepared in running buffer (10 mM HEPES, 150 mM NaCl, 10 mM MES adjusted to either pH 6 or pH 7.3) and injected on the immobilized anti-C2 surface at concentrations ranging from 0.078 to 40 μM, prepared in two-fold dilutions in running buffer. Association and dissociation phases were monitored for 180 and 600 seconds, respectively. […] Double referenced sensorgrams were fitted to either a 1:1 kinetic model (pH 6), including a term for mass transport limitation or to a 1:1 steady state model (pH 7.3) where responses at the end of the association phase were plotted against respective concentrations.
(§5) Binding to both human and cynomolgus monkey FcRn was tested using the SPR methods described above.

human FcRn/β2m [12] = target: T7, human FcRn/β2m; assay: SPR, antibody immobilised, FcRn/β2m analyte, pH 6.0
Method: as §4, §5

B1: RF16-203 (antibody, V domains shown)
VH: EVQLLESGGGLVQPGGSLRLSCAASGFTFSRYYMMWVRQAPGKGLEWVSSIGSSGGTTNYADSVKGRFTISRDNSKNTLYLQMNSLRAEDTATYYCAKGGMVLGVVNIWGQGTLVTVSS
VL: QSALTQPPSVSVSPGQTATITCSGDKLGEKYVSWYQQKPGQSPVVVIFQDIKRPSGIPERFSGSNSGNTATLTISGTQAMDEADYYCQTWGTGGIQVFGGGTKLTVLR
notes: Human antibody from a phage display library
**Q.** For B1, which “IC50, inhibition of cynomolgus classical complement pathway (Wieslab assay)” value (cynomolgus monkey C2 [1]) is on record?
**A.** 13.3 nM

**Q.** What about the “IC50, inhibition of cynomolgus lectin complement pathway (Wieslab assay)” value (cynomolgus monkey C2 [1]) of the same binder?
**A.** 112 nM

**Q.** And the Kd (human complement C2 [2])?
**A.** 2.5 nM

**Q.** What about the “IC50, inhibition of cyno classical pathway (hemolysis assay)” value (cynomolgus monkey C2 [3]) of the same binder?
**A.** 361 nM

**Q.** And the “IC50, inhibition of human classical pathway (hemolysis assay)” value (human complement C2 [4])?
**A.** 42 nM

**Q.** What about the Kd (mouse C2) of the same binder?
**A.** 153 nM

**Q.** What about the “IC50, inhibition of human classical complement pathway (Wieslab assay)” value (human complement C2 [5]) of the same binder?
**A.** 5.4 nM

**Q.** What about the “IC50, inhibition of human lectin complement pathway (Wieslab assay)” value (human complement C2 [5]) of the same binder?
**A.** 1.29 nM

**Q.** And the Kd (human complement C2 [6])?
**A.** 12.6 nM

**Q.** And the Kd (cynomolgus monkey C2 [7])?
**A.** 2.82 nM

**Q.** And the Kd (human complement C2 [8])?
**A.** 73 nM

B2: RF16-226G (antibody, human IgG4 S228P, lambda)
heavy: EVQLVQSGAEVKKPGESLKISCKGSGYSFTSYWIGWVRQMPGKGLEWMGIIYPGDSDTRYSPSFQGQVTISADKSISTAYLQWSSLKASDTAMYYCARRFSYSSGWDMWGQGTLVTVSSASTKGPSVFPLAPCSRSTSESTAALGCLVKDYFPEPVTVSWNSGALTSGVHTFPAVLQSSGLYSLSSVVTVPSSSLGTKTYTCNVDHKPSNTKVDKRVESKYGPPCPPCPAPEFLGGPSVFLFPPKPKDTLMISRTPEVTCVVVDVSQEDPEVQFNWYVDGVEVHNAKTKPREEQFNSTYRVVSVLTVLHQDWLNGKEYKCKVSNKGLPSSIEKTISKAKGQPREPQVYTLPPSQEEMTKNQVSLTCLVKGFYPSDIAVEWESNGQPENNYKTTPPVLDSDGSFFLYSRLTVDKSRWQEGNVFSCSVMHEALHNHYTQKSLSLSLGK
light: SYELTQPPSVSVSPGQTARITCSGDALTSKYVAWYQQKSGQAPVLVIYEDTRRPSGIPERFSGSSSGTMATLTISGAQVEDEADYYCYSTDASGHQRVFGGGTKLTVLGQPKAAPSVTLFPPSSEELQANKATLVCLISDFYPGAVTVAWKADSSPVKAGVETTTPSKQSNNKYAASSYLSLTPEQWKSHRSYSCQVTHEGSTVEKTVAPTECS
**Q.** What does the source list for B2?
**A.** Kd [9]: 7 nM; binding result (human C2b): no binding (tested: C2b tested up to 1000 nM); binding result [10]: no binding (tested: C2a tested up to 500 nM)

B3: RF16-226G YPY (RF16-226G with the M252Y, V308P and N434Y Fc mutations) (antibody, human IgG4 S228P, lambda)
heavy: EVQLVQSGAEVKKPGESLKISCKGSGYSFTSYWIGWVRQMPGKGLEWMGIIYPGDSDTRYSPSFQGQVTISADKSISTAYLQWSSLKASDTAMYYCARRFSYSSGWDMWGQGTLVTVSSASTKGPSVFPLAPCSRSTSESTAALGCLVKDYFPEPVTVSWNSGALTSGVHTFPAVLQSSGLYSLSSVVTVPSSSLGTKTYTCNVDHKPSNTKVDKRVESKYGPPCPPCPAPEFLGGPSVFLFPPKPKDTLYISRTPEVTCVVVDVSQEDPEVQFNWYVDGVEVHNAKTKPREEQFNSTYRVVSVLTPLHQDWLNGKEYKCKVSNKGLPSSIEKTISKAKGQPREPQVYTLPPSQEEMTKNQVSLTCLVKGFYPSDIAVEWESNGQPENNYKTTPPVLDSDGSFFLYSRLTVDKSRWQEGNVFSCSVMHEALHYHYTQKSLSLSLGK
light: B2 light
**Q.** Which Kd [9] does the source give for B3 here?
**A.** 8 nM

**Q.** Does B3 bind (human C2b)?
**A.** no binding (tested: C2b tested up to 1000 nM)

**Q.** Does B3 bind [10]?
**A.** no binding (tested: C2a tested up to 500 nM)

B4: RF16-226 M252Y, N286E, N434Y (antibody, human IgG4 S228P, lambda)
heavy: B3 heavy with N285E, P307V
light: SYELTQPPSVSVSPGQTARITCSGDALTSKYVAWYQQKSGLAPLLVIYEDTRRPSGIPAKFSGSSSGSVATLTISGAHGDDEADYYCYSTDASGHQRVFGGGTKLTVLSQPKAAPSVTLFPPSSEELQANKATLVCLISDFYPGAVTVAWKADGSPVKAGVETTKPSKQSNNKYAASSYLSLTPEQWKSHRSYSCQVTHEGSTVEKTVAPTECS
**Q.** B4 was tested. Which Kd (human FcRn/β2m [11]) did it give?
**A.** 3300 nM

**Q.** And the Kd (human FcRn/β2m [12])?
**A.** 22 nM

B5: RF16-226 M252Y, V308P, N434Y (antibody, human IgG4 S228P, lambda)
heavy: B3 heavy
light: B4 light
**Q.** With B5 as the binder, how does the Kd (human FcRn/β2m [11]) read?
**A.** 1200 nM

**Q.** What about the Kd (human FcRn/β2m [12]) of the same binder?
**A.** 10 nM
